The values below come from patent publication US12552834 (MIT, dated 2026).

The target in test [1] is T1, VASP EVH1 domain (Homo sapiens (Human), UniProt P50552 1-114).
T1 construct: VASP numbering in the text counts from the Met at position 25 of the entry
The test can be described thus: BLI steady state, immobilised SUMO-PCARE B, EVH1 domain in solution.

The target in test [2] is T2, EVL EVH1 domain (wild type) (Mus musculus (Mouse), UniProt P70429 1-116).
T2 construct: EVL numbering counts from the Met at position 25 of the entry; also called WT EVL EVH1 domain
Described as above.

Test [3] has as its target T2, EVL EVH1 domain (wild type). The description is as above. This is another data set of the same source.
Test [4] has as its target T3, EVL EVH1 swapped (residue swapped) (Homo sapiens (Human), UniProt Q9UI08 1-109).
T3 construct: also called EVL swapped; residue-swapped EVL EVH1 domain
As to the kind of experiment: BLI, EVL swapped EVH1 domain in solution.

Test [5] addresses T4, ENAH EVH1 domain (monomeric, wild type) (human, UniProt Q03173 1-111 (mouse entry)).
T4 construct: ENAH residue numbers in the text count from the Met at position 25 of this entry; also called ENAH EVH1 WT; Mena EVH1 WT
As to the kind of experiment: BLI, monomeric EVH1.

Test [6] has as its target T4, ENAH EVH1 domain (monomeric, wild type). The test can be described thus: BLI, steady state; SUMO-peptide immobilised, EVH1 monomer in solution. A general note: BLI is a label-free optical method that tracks binding on a fibre tip over time.
Protocol: (§1) All BLI experiments were performed with 2 replicates on an Octet Red96 instrument (ForteBio). […] The loaded tips were immersed in a solution of ENAH EVH1 domain at a relevant dilution series in BLI buffer at an orbital shake speed of 1000 rpm and run until the binding signal plateaued. ENAH-bound tips were subsequently placed into BLI buffer only for dissociation and run until the binding signal plateaued. K_D values were obtained through steady state analysis. […] The association phases were then fit to a one-phase binding model in Prism and the equilibrium steady-state binding signal values from that fit were plotted against ENAH concentration and fit to a single-site specific binding model in Prism to obtain dissociation constants. Errors reported are the standard deviation of two replicates.
For test [7] the target is unchanged. The test can be described thus: BLI.
Protocol: as §1
Test [8] addresses T1, VASP EVH1 domain. As to the kind of experiment: BLI steady state, immobilised SUMO-PCARE-Dual, EVH1 domain in solution.
Protocol: (§2) (C) Peptide binding and dissociation curves measured by BLI. Blue, orange, green, red, purple, and brown curves denote EVH1 concentrations in descending order.
as §1
The target in test [9] is T2, EVL EVH1 domain (wild type). The test is described as above.
Protocol: as §2, §1
For test [10], the target named is T4, ENAH EVH1 domain (monomeric, wild type). The test is described as above.
Protocol: as §2, §1
Test [11] has the same target. As to the kind of experiment: BLI steady state, immobilised SUMO-peptide, ENAH EVH1 domain in solution.
Protocol: as §2, §1
The target is the same in test [12]. The test can be described thus: BLI dissociation curves.
Protocol: as §2, §1
The target is the same in test [13]. As to the kind of experiment: BLI dissociation phase, immobilised SUMO-peptide, ENAH EVH1 domain in solution.

T2 sequence (P70429 other isoform, or with tags, fused parts or gaps limits assumed): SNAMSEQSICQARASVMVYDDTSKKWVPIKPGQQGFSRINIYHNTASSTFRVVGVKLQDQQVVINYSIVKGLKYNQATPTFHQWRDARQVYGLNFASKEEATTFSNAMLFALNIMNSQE
T4 sequence (Q03173 other isoform, or with tags, fused parts or gaps limits assumed): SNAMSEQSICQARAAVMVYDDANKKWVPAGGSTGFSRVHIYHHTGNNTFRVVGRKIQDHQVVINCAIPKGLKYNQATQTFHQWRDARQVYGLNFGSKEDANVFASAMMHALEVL
T1 sequence (P50552 other isoform, or with tags, fused parts or gaps limits assumed): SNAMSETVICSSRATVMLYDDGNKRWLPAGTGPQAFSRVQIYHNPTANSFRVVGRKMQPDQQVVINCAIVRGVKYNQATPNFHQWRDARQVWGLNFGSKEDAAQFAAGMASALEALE
T3 sequence (Q9UI08 other isoform, or with tags, fused parts or gaps limits assumed): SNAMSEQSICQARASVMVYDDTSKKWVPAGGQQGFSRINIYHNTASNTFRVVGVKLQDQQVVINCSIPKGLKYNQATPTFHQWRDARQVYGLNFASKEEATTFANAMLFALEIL

B1: PCARE B (PCARE826-848) (peptide)
peptide: MAGGLNDIFEAQKIEWHEDTGGSSHHHHHHGSGSGSDSEVNQEAKPEVKPEVKPETHINLKVSDGSSEIFFKIKKTTPLRRLMEAFAKRQGKEMDSLTFLYDGIEIQADQTPEDLDMEDNDIIEAHREQIGGSGSGNLEHLPPPPMEVLMDKSFASLES
modifications: biotinylated (BAP tag)
Consider B1, for which the Kd was 42 µM with VASP EVH1 domain [1], 22 µM in [2], 22 µM in [3] and 0.35 µM in test [4].

B2: TENM1 36-mer peptide (peptide)
peptide: MAGGLNDIFEAQKIEWHEDTGGSSHHHHHHGSGSGSDSEVNQEAKPEVKPEVKPETHINLKVSDGSSEIFFKIKKTTPLRRLMEAFAKRQGKEMDSLTFLYDGIEIQADQTPEDLDMEDNDIIEAHREQIGGSGSGGSTQDVQSSPHNQFTFRPLPPPPPPPHACTCARKPP
modifications: biotinylated (BAP tag)
notes: Tested as a biotinylated BAP-6xHis-SUMO-peptide fusion; The text calls it TEN1; it contains both an FP4 and a CXC motif; also called TEN1
Regarding B2, the Kd in [5] is over 60 µM; in [6], 62.9 µM.

B3: PCARE-Dual peptide (designed binder)
peptide: MAGGLNDIFEAQKIEWHEDTGGSSHHHHHHGSGSGSDSEVNQEAKPEVKPEVKPETHINLKVSDGSSEIFFKIKKTTPLRRLMEAFAKRQGKEMDSLTFLYDGIEIQADQTPEDLDMEDNDIIEAHREQIGGSGSGNLEHLPPPPMEVLMDKSFASLESGSGSPPPPPF
modifications: biotinylated (BAP tag)
notes: Engineered peptide, tested as a SUMO fusion in BLI
On to B3, for which the dissociation constant Kd in test [7] amounted to 0.05 µM; in the test with VASP EVH1 domain [8], 28 µM; in [9] it was 21 µM; in test [10], 0.048 µM; in [11], 0.048 µM. Also, the “fold tighter binding than PCARE B” value in test [7] is about 7 fold. In addition, the “fold slower dissociation than dual-motif peptide LPP” value in test [12] was about 100 fold. This molecule came in with an off-rate constant (koff) in test [13] of 0.045 s⁻¹.

As a reminder, the Kd is the equilibrium constant for the complex coming apart. Read a high Kd as lower affinity. One may read the koff as a measure of how fast the partners let go of each other. A higher koff goes with fast dissociation.
